Results taken from patent EP4786499A1 (Guangdong Fapon Biopharma Inc., dated 2026).

T1: mouse PD-1 (mouse, UniProt Q02242 25-288)
T1 construct: whole, on cells; also called CHO/mouse PD-1
T1 sequence (looked up): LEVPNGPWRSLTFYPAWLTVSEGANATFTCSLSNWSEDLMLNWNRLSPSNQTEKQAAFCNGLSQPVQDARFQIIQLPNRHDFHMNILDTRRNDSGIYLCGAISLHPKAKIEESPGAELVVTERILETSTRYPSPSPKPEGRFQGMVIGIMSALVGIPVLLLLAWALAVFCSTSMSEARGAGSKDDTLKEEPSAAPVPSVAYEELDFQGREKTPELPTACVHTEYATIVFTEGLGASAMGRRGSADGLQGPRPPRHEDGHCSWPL

T2: cyno IL10R1 (cyno, UniProt A0A2K5WJ66 22-576)
T2 construct: whole, on cells; also called CHO/cyno IL10R1; monkey IL10R1
T2 sequence: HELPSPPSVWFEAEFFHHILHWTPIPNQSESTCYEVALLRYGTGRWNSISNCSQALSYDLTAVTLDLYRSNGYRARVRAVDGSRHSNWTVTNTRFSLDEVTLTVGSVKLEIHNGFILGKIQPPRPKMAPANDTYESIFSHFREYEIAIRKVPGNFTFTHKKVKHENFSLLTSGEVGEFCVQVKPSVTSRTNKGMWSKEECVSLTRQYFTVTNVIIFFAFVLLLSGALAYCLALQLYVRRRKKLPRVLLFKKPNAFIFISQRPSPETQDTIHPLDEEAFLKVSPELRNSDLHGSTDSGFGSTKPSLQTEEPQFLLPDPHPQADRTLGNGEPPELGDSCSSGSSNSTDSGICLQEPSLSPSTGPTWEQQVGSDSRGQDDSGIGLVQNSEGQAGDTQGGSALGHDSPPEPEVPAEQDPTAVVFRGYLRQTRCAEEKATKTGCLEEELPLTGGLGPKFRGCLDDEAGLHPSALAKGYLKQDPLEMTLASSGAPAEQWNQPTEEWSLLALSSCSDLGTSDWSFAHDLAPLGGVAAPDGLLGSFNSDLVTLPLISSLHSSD

T3: human IL10R1 (human, UniProt Q13651 22-578)
T3 construct: whole, on cells; also called CHO/human IL10R1
T3 sequence (looked up): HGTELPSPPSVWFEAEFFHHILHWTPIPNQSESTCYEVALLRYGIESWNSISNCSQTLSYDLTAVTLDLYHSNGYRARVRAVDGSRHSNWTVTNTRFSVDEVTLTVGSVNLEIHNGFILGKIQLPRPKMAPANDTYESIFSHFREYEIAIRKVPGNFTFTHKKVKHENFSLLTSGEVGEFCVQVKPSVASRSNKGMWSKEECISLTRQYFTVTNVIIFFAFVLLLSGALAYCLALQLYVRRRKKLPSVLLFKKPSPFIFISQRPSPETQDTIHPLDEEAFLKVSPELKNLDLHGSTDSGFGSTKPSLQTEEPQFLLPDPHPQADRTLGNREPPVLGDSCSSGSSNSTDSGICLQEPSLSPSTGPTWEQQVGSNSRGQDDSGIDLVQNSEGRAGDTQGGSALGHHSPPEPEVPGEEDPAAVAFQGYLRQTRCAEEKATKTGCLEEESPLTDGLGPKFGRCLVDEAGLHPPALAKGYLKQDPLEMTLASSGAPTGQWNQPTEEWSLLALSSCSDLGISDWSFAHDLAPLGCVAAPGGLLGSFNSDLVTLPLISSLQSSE

T4: mouse IL10R1 (mouse, UniProt Q61727 17-575)
T4 construct: whole, on cells; also called CHO/mouse IL10R1
T4 sequence (looked up): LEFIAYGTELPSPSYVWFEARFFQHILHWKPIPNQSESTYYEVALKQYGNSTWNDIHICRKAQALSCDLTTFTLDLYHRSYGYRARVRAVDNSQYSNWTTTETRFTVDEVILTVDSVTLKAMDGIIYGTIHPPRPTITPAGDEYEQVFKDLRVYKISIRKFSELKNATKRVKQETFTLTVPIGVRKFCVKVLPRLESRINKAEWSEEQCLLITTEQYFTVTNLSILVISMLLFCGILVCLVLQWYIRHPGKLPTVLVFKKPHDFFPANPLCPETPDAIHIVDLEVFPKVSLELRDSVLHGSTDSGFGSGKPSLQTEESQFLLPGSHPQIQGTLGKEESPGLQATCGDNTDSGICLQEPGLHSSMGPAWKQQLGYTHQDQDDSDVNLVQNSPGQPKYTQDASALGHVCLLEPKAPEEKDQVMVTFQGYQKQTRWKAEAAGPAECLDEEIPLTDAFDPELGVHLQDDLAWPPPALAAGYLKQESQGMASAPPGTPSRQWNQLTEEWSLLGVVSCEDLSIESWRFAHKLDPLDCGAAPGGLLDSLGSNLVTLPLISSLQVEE

B1: anti-PD1 antibody R1152 (antibody, human IgG1, kappa, L234A L235A, V domains shown)
VH: QVQLVQSGAEVKKPGASVKVSCKASGYTFTTYYMYWVRQAPGQGLEWMGGINPSNGGTNYAQKFQGRATMTVDTSTSTAYMELSSLRSEDTAVYYCTRRDSNYDGGFDYWGQGTTVTVSS
VL: DIQMTQSPSSLSASVGDRVTITCRASKSVSTSGYSYMHWYQQKPGKAPKLLIYLAYHLESGVPSRFSGSGSGTDFTLTISSLQPEDFATYYCQHSWELPITFGQGTKLEIKR
notes: also called PD1 monoclonal antibody R1152; PD-1 parent antibody
B2: R0862, hIgG1 antibody containing an L234A/L235A mutation (antibody, V domains shown)
VH: QVQLVESGGGVVQPGRSLRLSCAASGFTFSSYGMHWVRQAPGKGLEWVAAIWYDGSNKYYTDSVKGRFTISRDNSKNTLYLQMNSLRAEDTAVYYCARDLRGVMYFDLWGRGTLVTVSS
VL: EIVLTQSPATLSLSPGERATLSCRASQSVSRYLAWYQQKPGQAPRLLIYDASNRATGIPARFSGSGSGTDFTLTISSLEPEDFAVYYCQLRNNWPLTFGGGTKVEIKR
notes: Isotype control; also called ISO-hIgG1.8; copies: 2 + 2

How the values were obtained:
human PD1 [1] = target: T5, human PD1 (human, UniProt Q15116 25-288); test: cell-based or functional assay
cyno PD-1 = target: T6, cyno PD-1 (cyno, UniProt B0LAJ3 25-288); test: FACS on CHO/cyno PD-1 cells
T6 construct: also called CHO/cyno PD-1; monkey PD-1

human PD1 [2] = target: T5, human PD1; test: FACS on CHO/human PD-1 cells
mouse PD-1 = target: T1, mouse PD-1; test: FACS on CHO/mouse PD-1 cells
human PD1 [3] = target: T5, human PD1; test: FACS binding on CHO/human PD-1 cells (Example 12)
human PD1 [4] = target: T5, human PD1; test: FACS: blocking of human PD-L1-mFC (1 µg/mL) binding to CHO/human PD-1 cells
cyno IL10R1 = target: T2, cyno IL10R1; test: FACS on CHO/cyno IL10R1 cells
human IL10R1 = target: T3, human IL10R1; test: FACS on CHO/human IL10R1 cells
mouse IL10R1 = target: T4, mouse IL10R1; test: FACS on CHO/mouse IL10R1 cells

T5 sequence (Q15116 25-288): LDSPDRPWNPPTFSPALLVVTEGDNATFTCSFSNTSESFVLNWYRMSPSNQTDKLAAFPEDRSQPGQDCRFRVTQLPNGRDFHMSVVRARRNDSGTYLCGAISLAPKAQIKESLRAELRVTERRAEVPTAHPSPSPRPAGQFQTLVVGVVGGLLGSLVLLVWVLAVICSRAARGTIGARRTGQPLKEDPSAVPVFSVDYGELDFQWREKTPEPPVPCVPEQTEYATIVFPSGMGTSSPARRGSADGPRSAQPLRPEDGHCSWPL
T6 sequence (B0LAJ3 entry or part of it limits assumed, form in doubt): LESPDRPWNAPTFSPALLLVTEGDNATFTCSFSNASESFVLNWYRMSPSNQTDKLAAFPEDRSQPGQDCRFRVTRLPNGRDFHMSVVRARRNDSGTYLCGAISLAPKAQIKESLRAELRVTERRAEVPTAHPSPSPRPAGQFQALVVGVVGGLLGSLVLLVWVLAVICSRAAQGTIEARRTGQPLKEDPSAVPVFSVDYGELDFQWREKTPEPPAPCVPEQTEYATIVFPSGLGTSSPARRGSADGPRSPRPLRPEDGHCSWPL

Binder	EC50 of luciferase reporter gene activity (CHO-OKT3-hPD-L1 cells + Jurkat-NFAT-luc-hPD-1 cells) (human PD1 [1]) [nM]	EC50 (cyno PD-1) [nM]	EC50 (human PD1 [2]) [nM]	binding result (mouse PD-1)	EC50 (human PD1 [3]) [nM]	IC50 (human PD1 [4]) [nM]	binding result (human PD1 [2])	binding result (cyno IL10R1)	binding result (human IL10R1)	binding result (mouse IL10R1)
B1	6.84	3.47	5.47	no binding	7.75	8.34	–	–	–	–
B2	–	–	–	no binding	–	–	no binding	no binding	no binding	no binding
